Reference: PMC7504066

Tests used:
[1] = target: Plasmodium vivax PLP synthase domain (Pdx1) (Plasmodium vivax); assay: SAXS; batch SAXS at EMBL beamline P12 (PETRA III), 293 K; Pdx1 and SEC-purified Pdx complex (mixed 1:1, overnight) at 1, 2 and 5 mg mL^-1; ab initio (GASBOR, P6) and rigid body (SASREF) models, SAXSMoW mass
[2] = target: Plasmodium vivax PLP synthase domain (Pdx1) (Plasmodium vivax); assay: dynamic light scattering; purified Pdx1 alone and SEC-purified Pdx complex in a quartz cuvette, Spectroscatter-301, 660 nm laser, 90° angle
[3] = target: Plasmodium vivax PLP synthase domain (Pdx1) (Plasmodium vivax); assay: SEC; each protein alone on a Superdex 200 26/60 column; peak fractions evaluated by PAGE
[4] = target: Plasmodium vivax PLP synthase domain (Pdx1) (Plasmodium vivax); assay: negative-stain electron microscopy; Pdx1 alone, 25-30 µg mL^-1 in 20 mM Tris pH 8.0, 200 mM NaCl, 5 mM MTG, 2% uranyl acetate
[5] = target: Plasmodium vivax PLP synthase domain (Pdx1) (Plasmodium vivax); assay: native gel or EMSA; native PAGE of the purified proteins and of the SEC-purified Pdx complex

Plasmodium vivax glutaminase domain (Pdx2) (enzyme)
12: stoichiometry N (Pdx2 per Pdx1 dodecamer (12:12)) [1]

Plasmodium vivax PLP synthase domain (Pdx1) (enzyme)
12: stoichiometry N [2] | stoichiometry N [3] | stoichiometry N [4] | stoichiometry N [1] | stoichiometry N [5]
